Biological target: HLA-A2 on HLA-A2 positive lymphocytes / PBMCs (human)
Experiment: cell-based or functional assay

Work on “conjugate C (streptavidin-linked BB7.2 monoclonal antibody mixed with biotinylated HLA-G) (from UniProt P22629 37-163; P17693 25-299)” yielded a G-Body inhibitory effect on proliferation of PBMCs; CD3/CD28 beads; HLA-A2 positive donor C; Day 7 of 70%, a G-Body inhibitory effect on proliferation of PBMCs; CD3/CD28 beads; HLA-A2 positive donor D; Day 7 of 50% and a G-Body inhibitory effect on proliferation of PBMCs; CD3/CD28 beads; HLA-A2 positive donor G; Day 3 of 40%. For the same substance, the G-Body inhibitory effect on proliferation of PBMCs; CD3/CD28 beads; HLA-A2 positive donor G; Day 7 was 50%, the G-Body inhibitory effect on proliferation of PBMCs; CD3/CD28 beads; HLA-A2 positive donor J; Day 3 was 50% and the G-Body inhibitory effect on proliferation of PBMCs; SEB; HLA-A2 positive donor C; Day 3 was 60%. The G-Body inhibitory effect on proliferation of PBMCs; SEB; HLA-A2 positive donor J; Day 3 was 70% and the G-Body inhibitory effect on proliferation of PBMCs; SEB; HLA-A2 positive donor J; Day 7 was 70%.

— patent US20180311373A1
